Here are results for one molecule from patent US20240400621A1, “PEPTIDES FOR METABOLIC SYNDROME” (ALPARIS, S.A. de C.V., priority 2021, published 2024).

Experiment [1] concerns mice fed a high-fat diet. Nature of the experiment: Glucose tolerance test (GTT) in mice fed a high-fat diet. As to conditions: 12 weeks; intragastric daily; SEQ ID NO: 3 2.5 μg/mouse, SEQ ID NO: 2 0.6 or 0.2 μg/mouse. The class given is in vivo, mice (C57BL/6JN). How it is done:
(§1) For all the in vivo testing, male mice of the C57BL/6JN strain between 8 to 10 weeks of age were used, housed in groups of 3 to 5 mice per cage with food and water ad libitum in ventilated racks, and whose microbiota were unified for 4 weeks.
(§2) The mice received either 200 μL of a phosphate buffer solution (PBS) at pH 7.5 (as a vehicle), or 200 μL of the PBS solution, with each of the intragastric treatments daily for 12 weeks. They were fed either a Normal Diet (DN, Harlan, Teklad 2018SX) with 18% of the calories coming from fat, or a High-Fat Diet (DAG, Research Diets, D12491), with 60% of the calories coming from fat. […]
The mice were subjected to fasting for 6 hours, and the baseline glucose values in the blood were determined using glucose test strips and a glucometer (Roche's ACCU-CHECK ACTIVE).
Next, the mice received an intraperitoneal injection of 1.8 mg of glucose per gram of body weight, and the blood glucose values were recorded at 15, 30, 60, and 120 minutes after administration.
FIGS. 19A and 19B show the area under the curve (AUC) of the glucose tolerance test of the mice, measured at week 0 and 12.

For another experiment, the system named is TNFα. Nature of the experiment: Circulating TNFα levels in mice fed a high-fat diet. Conditions: 12 weeks; versus DAG; including SEQ ID NO: 2 at low doses. The class given is in vivo, mice (C57BL/6JN). How it is done: as §1, §2
(§3) To determine the effect of the peptides SEQ ID NO: 2 and SEQ ID NO: 3 in attenuating the inflammatory process in adipose tissue, the cellular infiltrate of the adipose tissue of the mice was quantified after they had been fed DAG.

The subject of another experiment is adiponectin. The experiment is described as follows: Adiponectin levels in mice fed a high-fat diet. The class given is in vivo, mice (C57BL/6JN). Conditions: 12 weeks; fall induced by DAG. How it is done:
as §1
(§4) The mice received either 200 μL of a phosphate buffer solution (PBS) at pH 7.5 (as a vehicle), or 200 μL of the PBS solution, with each of the intragastric treatments daily for 12 weeks. They were fed either a Normal Diet (DN, Harlan, Teklad 2018SX) with 18% of the calories coming from fat, or a High-Fat Diet (DAG, Research Diets, D12491), with 60% of the calories coming from fat.
All the mice were randomly divided into five experimental groups in order to study the effect of SEQ ID NO: 3 and SEQ ID NO: 2 correctly: • Group 1—Mice with DN that received 200 μl of PBS intragastrically. • Group 2—Mice with DAG that received 200 μl of PBS intragastrically. • Group 3—Mice with DAG that received 200 μl of PBS with SEQ ID NO: 3 intragastrically at a dose of: 2.5 μg/mouse. • Group 4—Mice with DAG that received 200 μl of PBS with SEQ ID NO: 2 intragastrically at a dose of 0.6 μg/mouse (high dose). • Group 5—Mice with DAG that received 200 μl of PBS with SEQ ID NO: 2 intragastrically at a dose of 0.2 μg/mouse (low dose). […]

For experiment [2], the system named is mice fed a high-fat diet. Nature of the experiment: Insulin resistance test (PRI) in mice fed a high-fat diet. The format is in vivo, mice (C57BL/6JN). Conditions: 12 weeks; intragastric daily; SEQ ID NO: 3 2.5 μg/mouse, SEQ ID NO: 2 0.6 or 0.2 μg/mouse. How it is done:
as §1, §2
The mice were subjected to fasting for 6 hours and the baseline glucose values were determined, as described above. Subsequently, the mice received an intraperitoneal injection of 1 mU of insulin per gram of body weight, and blood glucose values were recorded at 15, 30, 60, and 120 minutes after administration. The area under the curve (AUC) of the insulin resistance test was calculated considering the glucose decrease between time T0 and T15 using the absolute glucose values, as shown in FIGS. 20A and 20B.

The subject of a further experiment is IL-1B. The experiment is described as follows: Circulating IL-1B levels in mice fed a high-fat diet. The format is in vivo, mice (C57BL/6JN). As to conditions: 12 weeks; versus DAG; including SEQ ID NO: 2 at low doses. On the procedure:
as §1, §2, §3

Experiment [3] concerns the target human Toll-like receptor 2 (hTLR2) on HEK-Blue hTLR2 cells (human (printed as hTLR2), UniProt O60603 21-784). Nature of the experiment: cell-based or functional assay.
The target of the next experiment is T1, hTLR2 (Homo sapiens, UniProt O60603).
T1 construct: expressed in transfected cells; host or cells: HEK-Blue hTLR2 cells
Nature of the experiment: hTLR2 stimulation in HEK-Blue hTLR2 cells (NF-κβ/SEAP reporter, QUANTI-Blue). The class given is cell-based. How it is done:
The analysis of the biological activity of the protein of SEQ ID NO. 1 was performed via an in vitro Toll-like receptors (TLRs) recognition assay. The HEK-Blue hTLR2 cell line expressing the hTLR2 receptor was used, whose stimulation activates the NF-Kβ factor, which in turn induces the production of the reporter protein, secreted embryonic alkaline phosphatase (SEAP). The SEAP levels are quantified by a colorimetric method with the reagent QUANTI-Blue and correspond to hTLR2 stimulation levels. The HEK-Blue hTLR2 cell line was thawed and propagated to make a master cell bank. From this bank, a vial was thawed to check the correct growth of the cell line and the absence of mycoplasma contamination. The cells of the thawed vial were propagated to make a working cell bank and continue the subcultures to mount the activity assay of SEQ ID NO. 1. This consisted of a series of tests in which the cellular response was evaluated with different molecules to determine the most suitable conditions for the assay.
The determined EC50 for SEQ ID NO. 1 was 1147±211 ng/ml (35.1±6.4 nM).
The in vitro biological activity of SEQ ID NO:2, SEQ ID NO:3, SEQ ID NO:4, SEQ ID NO: 8, SEQ ID NO:9, SEQ ID NO: 10, SEQ ID NO:11, SEQ ID NO: 12, SEQ ID NO: 13, SEQ ID NO: 14, SEQ ID NO: 15, and SEQ ID NO:16 was tested via the stimulation of hTLR2 in the cultures of HEK-Blue hTLR2 cells in 96-well plates for 24 h. After collecting the supernatant, the plate was incubated with QUANTI-Blue at 37° C. for 1 h, and absorbance was measured at 620 nm.
To determine the EC50, the absorbance was plotted against the logarithm of protein concentration, and the data was adjusted to a dose-response sigmoidal ligand binding model with 4 parameters. The cell culture medium was used as a negative control, and PAM (synthetic triacylated lipopeptide (Pam3CSK4)) was used as a positive control.

The next experiment relates to insulin. The experiment is described as follows: Insulin levels (secretion in response to glucose) in mice fed a high-fat diet. As to conditions: 12 weeks; versus DAG group. The format is in vivo, mice (C57BL/6JN). On the procedure: as §1, §4
All the mice were randomly divided into five experimental groups in order to study the effect of SEQ ID NO: 3 and SEQ ID NO: 2 correctly: • Group 1—Mice with DN that received 200 μl of PBS intragastrically. • Group 2—Mice with DAG that received 200 μl of PBS intragastrically. • Group 3—Mice with DAG that received 200 μl of PBS with SEQ ID NO: 3 intragastrically at a dose of: 2.5 μg/mouse. • Group 4—Mice with DAG that received 200 μl of PBS with SEQ ID NO: 2 intragastrically at a dose of 0.6 μg/mouse (high dose). • Group 5—Mice with DAG that received 200 μl of PBS with SEQ ID NO: 2 intragastrically at a dose of 0.2 μg/mouse (low dose).
This means that the peptide SEQ ID NO: 3 improves insulin sensitivity, preventing insulin resistance from developing.

T1 sequence (O60603 21-784): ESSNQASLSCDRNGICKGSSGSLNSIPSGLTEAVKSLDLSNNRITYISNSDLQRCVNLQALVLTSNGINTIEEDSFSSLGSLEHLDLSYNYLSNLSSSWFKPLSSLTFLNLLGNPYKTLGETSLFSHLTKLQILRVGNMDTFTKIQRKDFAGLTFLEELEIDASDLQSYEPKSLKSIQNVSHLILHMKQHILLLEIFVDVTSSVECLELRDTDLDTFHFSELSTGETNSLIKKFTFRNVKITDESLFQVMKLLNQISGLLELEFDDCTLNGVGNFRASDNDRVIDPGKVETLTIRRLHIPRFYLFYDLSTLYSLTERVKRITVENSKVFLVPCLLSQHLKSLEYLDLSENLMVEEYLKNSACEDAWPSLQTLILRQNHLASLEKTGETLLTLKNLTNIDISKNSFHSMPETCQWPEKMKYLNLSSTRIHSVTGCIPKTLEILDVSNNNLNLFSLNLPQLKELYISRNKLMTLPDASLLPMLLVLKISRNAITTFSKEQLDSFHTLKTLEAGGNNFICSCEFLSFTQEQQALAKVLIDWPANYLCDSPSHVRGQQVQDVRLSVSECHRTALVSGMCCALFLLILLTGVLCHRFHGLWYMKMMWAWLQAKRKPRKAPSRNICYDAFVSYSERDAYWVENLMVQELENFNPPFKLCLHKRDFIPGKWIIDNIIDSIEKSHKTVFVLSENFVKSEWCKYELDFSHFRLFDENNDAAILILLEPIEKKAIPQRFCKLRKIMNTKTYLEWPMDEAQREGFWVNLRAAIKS
human Toll-like receptor 2 (hTLR2) on HEK-Blue hTLR2 cells, sequence (O60603 21-784): as above

B1: peptide SEQ ID NO: 3 (carboxyl terminal domain of SEQ ID NO: 1) (peptide)
chain: QLPIETPANNPEESDEADQAPWTPMPLEIAFQGDRESVLKAMNAITGMQDYLFTVNSIRIRNERMMPPPIANPAAAKPAAAQPATGAASLTPADEAAAPAAPAIQQVIKPYMGKEQVFVQVSLNLVHFNQPKAQEPSED
In general, EC50 refers to the midpoint of the concentration-response curve. With B1, in the experiment with mice fed a high-fat diet [1], the “glucose tolerance (AUC of GTT) versus DAG group” value is “improved glucose tolerance”. Further, the “circulating levels of TNFα” value with TNFα is on record as “prevented the increase in the circulating levels”. Further, the adiponectin in circulation entry with adiponectin is listed as “tendency to prevent a fall of adiponectin”. Also, the “insulin sensitivity (AUC of insulin resistance test) versus DAG group” value in the experiment on mice fed a high-fat diet [2] is “improve insulin sensitivity”. Further, in the experiment on IL-1B, the “circulating levels of IL-1B” value is “prevented the increase in the circulating levels of IL-1B”. Further, the “EC50” value in experiment [3] came out at 25.9 nM. Moreover, in the experiment with hTLR2 (HEK-Blue hTLR2 cells, 24 h), the “concentration from which hTLR2 is (significantly) stimulated” value is 8 nM. The “relative response compared to PAM” value with hTLR2 (from 229 nM, PAM (Pam3CSK4) positive control) came out at 107%. For the same molecule, the “insulin secretion in response to glucose administration” value with insulin is given as “statistically significant reduction in insulin secretion”.
